Consider three substances from US20170114140A1.

Values joined by “and” are separate entries in the source; they are usually repeats but may differ in a detail not shown here. Identical values can stand only once.

Holding throughout (assay): cell-based or functional assay
Assay [1] addresses IL-25 (R&D Systems) used to restimulate human PBMC (UniProt Q9H293).
The target in assay [2] is human IL-17RB on human PBMC (human) (UniProt Q9NRM6).
Assay [3] addresses human IL-17RA on cells (human PBMC; human foreskin fibroblasts) (human) (UniProt Q96F46).

Chain of IL-25 (R&D Systems) used to restimulate human PBMC (Q9H293 33-177 limits assumed): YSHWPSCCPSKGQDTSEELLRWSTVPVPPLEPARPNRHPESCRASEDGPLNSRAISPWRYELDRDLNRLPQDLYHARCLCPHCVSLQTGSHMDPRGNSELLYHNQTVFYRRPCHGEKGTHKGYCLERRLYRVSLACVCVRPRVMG
Chain of human IL-17RB on human PBMC (human) (Q9NRM6 18-502): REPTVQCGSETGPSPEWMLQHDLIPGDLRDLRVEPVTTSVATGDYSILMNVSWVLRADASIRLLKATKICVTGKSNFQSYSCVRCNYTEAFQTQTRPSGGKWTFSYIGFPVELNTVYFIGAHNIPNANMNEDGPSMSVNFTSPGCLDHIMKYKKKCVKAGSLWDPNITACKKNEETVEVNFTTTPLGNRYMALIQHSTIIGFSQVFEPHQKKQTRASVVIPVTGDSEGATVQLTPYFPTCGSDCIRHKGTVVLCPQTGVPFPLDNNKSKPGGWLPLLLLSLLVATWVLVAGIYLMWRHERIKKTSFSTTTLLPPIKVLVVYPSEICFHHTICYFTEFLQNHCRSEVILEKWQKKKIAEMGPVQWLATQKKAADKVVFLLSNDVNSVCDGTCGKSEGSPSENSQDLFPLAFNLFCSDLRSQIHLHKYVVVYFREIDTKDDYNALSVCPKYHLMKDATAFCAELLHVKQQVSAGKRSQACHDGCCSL

Regarding “HuIL-17RB: HIS (extracellular region of human IL-17RB fused to poly HIS) (from UniProt Q9NRM6 18-292) (receptor)”, in assay [1], the % Inhibition of IL-5 production (TSLP treated human PBMC + IL-2 + IL-25), inhibitor 10 micrograms/mL was determined as 67%. Take “MAB1207: anti-HuIL-17RB MuIgG2b (R&D Systems) (antibody)”: in assay [2], the % Inhibition of IL-5 production (TSLP treated human PBMC + IL-2 + IL-25), inhibitor 10 micrograms/mL stood at 13%. “MAB1771: anti-HuIL-17RA MuIgG2b (R&D Systems) (antibody)”: the % Inhibition of IL-5 production (TSLP treated human PBMC + IL-2 + IL-25), inhibitor 10 micrograms/mL in assay [3] is 24% and 33%.
